Assay results: patent EP0256654B1

Assays:
[1] = biological target: partially purified 17-1A antigen (isolated from SW116 cells) (human) (UniProt P16422); assay: competition with 125I murine 17-1A on plates coated with partially purified 17-1A antigen; 50% binding value
[2] = biological target: partially purified 17-1A antigen (isolated from SW116 cells) (human) (UniProt P16422); assay: cold murine 17-1A competing with 125I murine 17-1A on plates coated with partially purified 17-1A antigen; 50% binding value

IC50 [1] [µg/mL] | IC50 [2] [µg/mL] | Substance
0.3 | – | G1K 17-1A Chimeric IgG (from UniProt P01857 1-330) (antibody)
– | 0.16 | murine monoclonal antibody 17-1A
